Experiment: soluble on expression in E. coli; label from the status in PepcDB or PDB records

| Sequence | soluble on expression in E. coli |
| --- | --- |
| MSLKILFVAAEGAPFSKTGGLGDVIGALPKSLVKAGHEVAVILPYYDMVEAKFGNQIEDVLHFEVSVGWRRQYCGIKKTVLNGVTFYFIDNQYYFFRGHVYGDFDDGERFAFFQLAAIEAMERIDFIPDLLHVHDYHTAMIPFLLKEKYRWIQAYEDIETVLTIHNLEFQGQFSEGMLGDLFGVGFERYADGTLRWNNCLNWMKAGILYANRVSTVSPSYAHEIMTSQFGCNLDHILKMESGKVSGIVNGIDADLYNPQTDALLDYHFNQEDLSGKAKNKAKLQERVGLPVRADVPLVGIVSRLTRQKGFDVVVESLHHILQEDVQIVLLGTGDPAFEGAFSWFAQIYPDKLSTNITFDVKLAQEIYAACDLFLMPSRFEPCGLSQMMAMRYGTLPLVHEVGGLRDTVRAFNPIEGSGTGFSFDNLSPYWLNWTFQTALDLYRNHPDIWRNLQKQAMESDFSWDTACKSYLDLYHSLVNEGHHHHHH | soluble |
| MNSFVLMATVIREPELRFTKENQTPVCEFLVEFPGMRDDSPKESLKVVGWGNLANTIKETYHPGDRLIIEGRLGMNMIERQEGFKEKRAELTASRISLVDSGNGINPGELSSPPEPEAVDLSNTDDIPFLEHHHHHH | soluble |
| MLKRCNFKNQVKYFQSDFEQLIRQHPEKIIILDFYATWCGPCKAIAPLYKELATTHKGIIFCKVDVDEAEDLCSKYDVKMMPTFIFTKNGDAIEALEGCVEDELRQKVLEHVSAQ | not soluble |
| MGSDKIHHHHHHMALIRINFMAASLHRTVPLMVCLPTDKLVPDEQGVPRPIQGPFATLYLLHGILGSEVDWISGTRIQRWADERNLAVVMPAGENSFYTDHPWSGETYSQFIGQELIDFTRRTFPLSHQRDQTFIGGLSMGGYGALYNGLKFHDIFGAIVSLSAGLNVRPGMEKLPAKPQWFAETAAYQHGVFGPDLAAAGHSELNPQVLVTKLLAAHVALPAIFMAIGDQDGLKPANDEFDHFLTAKKVSHEYVVGSGAHEWDFWDRYLLKALNWLPLTNQGAGVNSGHIKAN | not soluble |
| MNQTLLSDFGTPVERVERAIDALRNGRGVMVLDDESRENEGDMVFAAEAMTLEQMALTIRHGSGIVCLCITDERRQQLDLPMMVTHNSSQFQTAFTVTIEAAEGVTTGVSAADRLTTIRKAIADNAKPADLNRPGHVFPLRGQPGGVLSRRGHTEASIDLATLAGYKPAGVLCELTNDDGSMAHAPEVIAFAKLHDMPVVTIDDLAAYLQSRAKKAS | not soluble |
| MNLTIIEFESNVLRDNPLNDPYKRRVGIIYPKDYEGRPILIYLSGYLSSSLTQINYNPLGEDMVSKVERLSNEGKMKGSVIVLPDMFTKVGGNQYINSSAVGMYEDFLVKELIPFLKDKFKSDKIGIFGHSSGGYGALILGMKYPNTIKAIADHAGDAYFEYVYLPTFPRAIEQLRRFKTPEEWLENYWKKENKQHREDLNTLNVVGMSAFYSPNNEKIELPFDLETGEILEDVWKKWLEKDPVRMVDKYADNLKMLKFIFIDVGKKDEFNIQYGSRTLHKKLQKYGINHYYEEFNDGHLHTNYRYDISLSLLEKKLTSE | not soluble |
| MGSDKIHHHHHHMQPSATDSTISAGTQPHIVYSERASAPGPLLVFIPGTGGKTPKTAETEQAFIGTALAHGYRVIILSYIDTPAIAQVCTKRVLANDPACAEQVRQKRAFGDDTTARIDDAPQDAIVHRLNALIRYLAAHNAGDHWEQYLAGERLNWRAIVLSGQSQGGGMAAYIAKRIAIRGVIDFSGGWDMRSDSDIASWYSAPSATPPERWYGTYHADERFASAIAASYRAMNIPVSHQFSLSEPVRHPEGKNPGHGEGASNPVYRGIWETMLTGLE | not soluble |
| MELQLAIDLLNKEEAAKLAQKVEEYVDIVEIGTPIVINEGLPAVQHLNENINNAKVLADLKIMDAADYEVSQAVKYGADIVTILGVAEDASIKAAVEEAHKHGKALLVDMIAVQNLEQRAKELDEMGADYIAVHTGYDLQAEGKSPLDSLRTVKSVIKNSKVAVAGGIKPDTIKDIVAEDPDLVIVGGGIANADDPVEAAKQCRVAIEG | not soluble |
| MITSTTTDYKNFFKHSAHPANAEQYFRELLDKRERRYEDLCRNIISDMNQYGLSVVDDFLGMETGLKILNEVRSMYNAGAFQDGQVVTNQTPDAPAVRGDKIRGDKIKWVGGNEPGCSNVWYLTNQIDSVVYRVNTMKDNGILGNYHIRERTRAMVACYPGSGTHYVMHVDNPQKDGRVITAIYYLNINWDARESGGILRIRPTPGTTVADIEPKFDRLIFFWSDIRNPHEVQPAHRTRYAITVWYFDAKEREEALIRAKLENSKTNNLAAQAQAQQAEPDSTTTPPAAPASSASSLPVSMSTGTGALNANVSSNSCATSSEICT | not soluble |
| MNGDDTFARRPTVGAQIPEKIQKAFDDIAKYFSKEEWEKMKVSEKIVYVYMKRKYEAMTKLGFKAILPSFMRNKRVTDFQGNDFDNDPNRGNQVQRPQMTFGRLQGIFPKIMPKKPAEEGNVSKEVPEASGPQNDGKQLCPPGKPTTSEKINMISGVLQRYCRFGSRPLQ | soluble |
| SVYINRMTGLSTFVAPTDDLHTACTKDLTTVAVDVLLGNDAVDAAAAAVSEPLQSLFSEWSNPVFARYPEVAVDVSSGQAESLAVKIHNVLYPYRFTKEMIHSVKVLQQVDNKFIACLMSTRMDEDGRTGGNLLVLVDQHAAHERIRLEQLITDSYEKQDPQSAGRKKLLSSTIIPPLAITVSEEQRRLLRN | soluble |
| MSCDGGKPAPAKLGDEQLAELREIFRSFDQNKDGSLTELELGSLLRSLGLKPSQDQLDTLIQKADRNNNGLVEFSEFVALVEPDLVKCPYTDDQLKAIFRMFDRDGNGYITAAELAHSMAKLGHALTAEELTGMIKEADRDGDGCIDFQEFVQAITSAAFDNAWG | soluble |
| MKATLHPYQEYSKNFILDHPYCALMLDMGLGKTLSSLTAIDELLHTFEIIENVLVIAPLSVAEKTWTDEIEKWDHLQHLTFSKVLGNPKQREEALFKKADVYLINRENVEWLVNYYQRNWPFKTVIIDELSSFKSSSAKRFKALRKVRPKMERVIGLTGTPSPNSLMDLWAQMYLLDQGERLGKTITQYRNKYFVPAQKNGHIVYSWQLIPGAEEAIYNKISDICVSMKAKDYLRLPPRTENIIELDLNPTSWKQYKELEREYVLELEGTDVVASNAATLSNKLLQLSNGAVYDENGDGREIHQEKLNALERVIEDAQGQSVLVFYQYQHDLERIQARFKQAKALNVSDGDIEKWNEGKISLLLAHPQSAGHGLNLQKGGHIIVWFGLTWSLEFYQQANARLDRQGQTQPVIIHHLVTKGTIDEQVIKALQAKEQGQSALMAAVKAKIEEYRGDKLG | not soluble |
| SKRVVFVTVGTTSFDALVKAVVSQNVKDELQKRGFTHLLIQMGRGIFFPTKCDGADGSLVVDYFTFSSSIADYIRSASLVISHAGSGSIFETLKLGKPLIVVVNEDLMDNHQCELAEALEERKHLYYTRPHSLHQTLTKMELGSLVQYTPGDGTPVARIIDRFLG | soluble |
| MSLIAKVVVDVAAKQTDRIFEYHIPVELEKDIKVGSRVVVPFGPRKIQGFVVGLSEDSEFKGQLKDLLVVVDEMPPLTPELVTLSADLAENIYSYRIKILQAMLPWVMRANYRKLLVPANAQAEKMQFFQGDPIDLNKITDLKDIKKIRKLLRDGDAKIEYVVENKAKKKKENQYELVLESEEYTKIYNTLRQNAVKQKQLLMDIIENEASYPKNQKDFEKKLGLTASVLNTAVKRGWLKRKEVEVYRDPLSGFKDNKKSAPVKLNDEQQFALNQITAAIDKRKAETFLLEGITGSGKTEVYLHAISKALEQGRNALMLVPEISLTPQMVRQVKSRFGQAVAVLHSALSEGEKYDEWRRIRRGETRVVVGARSAVFAPLDNIGLIVIDEEHESSYKQETDPRYNARDVAIWRSKYHHCPLVLGSATPSLGSRARAQKNVYKLLRLTKRANNKKLPKVNLIDLKHVQFAGGQFDLSVNLVDAIKKRLDNKEQVILMLNRRGFANFMLCRECGFVLKCPNCDVSLNLHKDTNSMQCHYCGHTERVPSRCPNCQSSKIRFLGTGTQKVQEELEELLPGARILRMDVDTTRKKGSYKRILDSFGNHEADILLGTQMIAKGLDFPNVTLVGVINADTGLWLSDYNASEKTFELLTQVAGRAGRANKEGEVLIQTYNPEHYAIQLAQTQNYERFYGYEMNVRHAGNYPPYFFTVLISIAAKKEQNAAREAFRIKRYLSQHLHEEMIILGPTPSAISRVKNQYYYQILVKYKKEPNIKELLHHIQDSAQEAKKYGLNVFIDNEPEKIMEGHHHHHH | soluble |
| MKVSLVIPTYNSKDLVAPCLVSLNHQRLDEADEFEVVLVDDGSTDGTGEVVDSLPLTYRIRRVYVPRTEKSCRSAARNAGIRAADGELIVFVDGDQIIDPLFVQEHIRCHRGRPAIVAIGFRDYQAPGAVDLALLERSFTPEAFPPVADQDERAQVTATLSQNMGNLATGWHFFYGCNVSVRKEHLLAVGGFDENIQKWSFEDVELGYRLHRRGLAFVHNLYSRVYHQFHPESDQERYADWRENFEYFTSKHPELEVRLQWVLDSYFDPGRTSRPSWFDAYLRFEFACRAVAERLPIGHSYEVLVVDADNLDSAEREIARVGAAHDLIVVDITDDRELPTAVQAMRTGRELLYFKEPSPELLQQAAKSFGCAALLKYAAEVLEHHHHHH | soluble |
| MHMEDFIQFFSGSNLSIDKANFDQFGLKAKIKHYQKGQLLITQGQPAPKLFFLIKGMVRYMSVSATGKEFTQSFAFAPGISGSTRAMTRNANALFSIEALDDVICLEFEWHVFFDQMQSQPGFLAAYNRLLENMFIKKEEREFAFVQQSAEQRYLTFLDMNPQLRDKISLKMIASHIGITPIALSRIRNKLK | not soluble |
| GADEEESTPCDNVETDQQTFACAAFNKQVAERELQSAYDELIERMRDQFGDEAGLMSRIEAAEKVWSQLRDADCKVETHAEQPGSNAYQIAWNSCIAQRSDERAEYLRSLGSQNSDEPAPED | soluble |
| MSKNKNDYEHMLFYFAYKTFITTADEIIEQYGMSRQHHRFLFFINKLPGITIKELLITLEISKQGSHATLRKLKEEGLIVEQTSKQDRRVKKLFTTEAGDDLIGKLNQAQDELIQQTLQKVGHDWYAMMEELANYREGFKTIEHLKED | soluble |
| MQRKLNQSLLLAEAYFKRKFTMPEVNYELRGIKAGVAYLQKNEIKFNRTLLQENTDEFIRQVVPHELAHLIVYQMFGRVKPHGKEWQLVMNEIFKLPADTCHQFDIKNVQGKTFEYRCACQTHFLTIRRHNKIMKENIEYLCKKCRGKLVFVDDEELEHHHHHH | not soluble |
| RESITDSRMAYRTISPFLTDLPQEEMWVLLLNQSGKIISMENLSRGGVSETSADVRLIMHKAVSHLASAIILAHNHPSGTVRPSEQDIQLTQRVQKAATLLGFRLNDHLIIGDDGAYFSFADEGLL | not soluble |
| MGSDKIHHHHHHWLDLAPSTQVDTETSINVLSDIEFTLNGIYSTMQSSDAYSGRLVYYGDVTGDDMQAVSSTKRTGNYYRFNFTKDNGPSSHWSYLYSIIQNCNLILMNVDKLSIDEDETEYKNDLKGQALAIRGMALFDLTRIFGYPYLKDNGASLGVPIVKELSTIDSKPARNTVAECYTEIISDLKNSTELLSGDFNKGKVNRWAAMTLLSRVYLYKGEYNEALTMAENAIKGAEKEGYALWTNEEYPTAWGNDASASNPGEILFEIVNLTTDSPGKESMGYLNSYNGYDDMCITCSFYQLLKKDPKDVRLKILSFDKKYYAYVNKYQPQQGENITDANIPLIRLSEAYLNAAEAAVQTGDNAKAVKYLNSIVQRANPENSVEGKTLTLENVLDERRKELVAEGHRMYDVIRNGMTVKRIDVKDSDINKTKHNTAYMEYDWNFHKILLPIPKKEMDANPNMKQNPGYVD | not soluble |
